Source: patent US20080063646A1 (AbbVie / Abbott, published 2008)
“And” between values parts separate entries of the source, which are not always exact repeats. Equal values may be shown once.

T1: B lymphocyte chemokine (BLC) (UniProt O43927 23-109, limits assumed)
T1 sequence (looked up): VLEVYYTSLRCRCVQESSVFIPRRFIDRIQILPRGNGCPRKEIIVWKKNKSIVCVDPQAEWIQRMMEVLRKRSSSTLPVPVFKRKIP

T2: recombinant human IP-10 (R&D Systems) (human, UniProt P02778 22-98)
T2 sequence: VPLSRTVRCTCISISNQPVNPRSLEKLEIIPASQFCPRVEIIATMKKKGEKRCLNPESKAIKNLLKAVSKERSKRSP


Key:
[1] = molecular target: T1, B lymphocyte chemokine (BLC); assay: ELISA with hybridoma supernatants
[2] = molecular target: T2, recombinant human IP-10 (R&D Systems); assay: cell-based or functional assay
[3] = molecular target: T2, recombinant human IP-10 (R&D Systems); assay: Biacore

binding result [1]	IC50 of inhibition of chemotaxis, donor 215 [2] [µg/mL]	IC50 of inhibition of chemotaxis, donor 318 [2] [µg/mL]	IC50 of inhibition of chemotaxis, donor 1012 [2] [µg/mL]	IC50 of inhibition of chemotaxis, donor 1022 [2]	fold faster off-rate (kd) than unmodified HuAIP12 [3] [fold]	fold higher Kd than unmodified HuAIP12 [3] [fold]	fold slower on-rate (ka) than unmodified HuAIP12 [3] [fold]	fold weaker monovalent interaction than unmodified HuAIP12 [3] [fold]	Binder
no binding	0.13	0.041	0.091	0.135 µg/mL and 0.051 µg/mL and 0.086 µg/mL	–	–	–	–	murine monoclonal antibody AIP12 (antibody, V domains shown, Mouse hybridoma antibody; Mouse IgG1/kappa is used as its isotype control; also called MuAIP12; MUAIP12) VH: QIQLVQSGPELKKPGETVKISCKASGYTFTDYSMHWVKQAPGKGLKWMGWINTETGEPTYADDFKGRFAFSLETSASTAYLQINNLKNEDTATYFCARNYDYDGYFDVWGAGTTVTVSS VL: DIQMTQSPSSLSASLGGKVTITCKASQDINKYIAWYQHKPGKGPRLLIHYTSTLQPGIPSRFSGSGSGRDYSFSISNLEPEDIATYYCLQYDNLLFTFGSGTKLEIK
no binding	0.26	0.139	0.084	0.229 µg/mL and 0.154 µg/mL and 0.078 µg/mL	–	–	–	–	murine monoclonal antibody AIP13 (antibody, V domains shown, Mouse hybridoma antibody; Mouse IgG1/kappa is used as its isotype control; also called MuAIP13) VH: QIQLVQSGPELKKPGETVKISCKASGYTFTDYSMHWVKQAPGKGLKWMGWINTEIGEPTYADDFKGRFAFSLETSASTAYLQINNLKNEDTATYFCARNYDYDAYFDVWGAGTTVTVSS VL: DIQMTQSPSSLSASLGGKVTITCKADQDINKYIAWYQHKPGRGPRLLLHHTSTLQPGIPSRFSGSGSGRDYSFSISNLEPADIATYYCLQYDSLLFTFGSGTKLEIK
–	–	–	–	–	~2	> 20	~10	20	HuAIP12 G104A variant antibody (antibody, V domains shown, Human gamma-1 / kappa, transiently expressed in 293-H cells) VH: EVQLVQSGAEVKKPGATVKISCKVSGYTFTDYSMHWVRQAPGKGLKWMGWINTETGEPTYADDFKGRFTFTLDTSTSTAYMELSSLRSEDTAVYYCARNYDYDAYFDVWGQGTTVTVSS VL: DIQMTQSPSSLSASVGDRVTITCKASQDINKYIAWYQQKPGKAPKLLIHYTSTLQPGIPSRFSGSGSGRDYTFTISSLQPEDIATYYCLQYDNLLFTFGQGTKLEIK
–	0.142	0.038	0.073	–	–	–	–	–	humanized monoclonal antibody HuAIP12 (antibody, IgG1, V domains shown) VH: EVQLVQSGAEVKKPGATVKISCKVSGYTFTDYSMHWVRQAPGKGLKWMGWINTETGEPTYADDFKGRFTFTLDTSTSTAYMELSSLRSEDTAVYYCARNYDYDGYFDVWGQGTTVTVSS VL: DIQMTQSPSSLSASVGDRVTITCKASQDINKYIAWYQQKPGKAPKLLIHYTSTLQPGIPSRFSGSGSGRDYTFTISSLQPEDIATYYCLQYDNLLFTFGQGTKLEIK
–	0.139	0.045	0.077	–	–	–	–	–	humanized monoclonal antibody HuAIP13 (antibody, IgG1, V domains shown) VH: EVQLVQSGAEVKKPGATVKISCKVSGYTFTDYSMHWVRQAPGKGLKWMGWINTEIGEPTYADDFKGRFTFTLDTSTSTAYMELSSLRSEDTAVYYCARNYDYDAYFDVWGQGTTVTVSS VL: DIQMTQSPSSLSASVGDRVTITCKADQDINKYIAWYQQKPGKAPKLLLHHTSTLQPGIPSRFSGSGSGRDYTFTISSLQPEDIATYYCLQYDSLLFTFGQGTKLEIK
